Assays:
Settings in all cases: both partners purified
Aβ(1–40) monomer = target: T1, Aβ(1–40) monomer (Homo sapiens, UniProt P05067); assay: SPR; Biacore 3000; antibody captured on a CM5 chip via immobilised anti-mouse or anti-human antibody; monomeric Aβ peptides injected (240 µl, 30 µl/min), running buffer HBS-EP; 1:1 Langmuir binding model
T1 construct: amyloid beta peptide, residues 1-40

Aβ(3–40) monomer = target: T2, Aβ(3–40) monomer (Homo sapiens, UniProt P05067); assay: as above
T2 construct: amyloid beta peptide, residues 3-40, N-terminal glutamate not cyclised

[1] = target: T3, oligomers (AADL) of 100% Aβ(1–42) (Homo sapiens, UniProt P05067); assay: SPR; Biacore 3000; Aβ oligomers or fibrils captured with pE3-Aβ-specific antibodies (pure pE3-Aβ aggregates) or an N-terminal non-pE3-Aβ-specific antibody (Aβ(1–42) aggregates and mixtures); PBD-C06 antibody injected; Single Cycle Kinetics model; bivalent binding
T3 construct: amyloid beta peptide, residues 1-42; also called Mixed Oligomers (AADL) 0: 100; oligomers consisting of 100% Aβ(1–42); source: 2500 µM Aβ(1–42) added to Ham's F-12 medium, 18 hours at 4 °C, supernatant after centrifugation

fibrils of 100% Aβ(1–42) = target: T4, fibrils of 100% Aβ(1–42) (Homo sapiens, UniProt P05067); assay: as above
T4 construct: amyloid beta peptide, residues 1-42; also called Mixed Fibrils 0: 100; source: 350 µM Aβ(1–42), diluted to 50 µM, fibrillated 7 days at 37 °C, pH 8.7

Kd (Aβ(1–40) monomer): 6310 nM
koff (Aβ(1–40) monomer): 0.0025 s⁻¹
kon (Aβ(1–40) monomer): 390 M⁻¹ s⁻¹
Kd (Aβ(3–40) monomer): 796 nM
koff (Aβ(3–40) monomer): 0.0025 s⁻¹
kon (Aβ(3–40) monomer): 3200 M⁻¹ s⁻¹
Kd [1]: 2.02 nM
Kd (fibrils of 100% Aβ(1–42)): 1.81 nM
B1: murine PBD-C06 precursor antibody (antibody, V domains shown)
VH: EVQLQQSGPELVKPGASMKISCKASGYSFTGYTMNWVKQSHGKNLEWIGLINPYNGVTRYNQKFKGKATLIVDKSSSTAYMELLSLTSEDSAVYYCTREAKREWDETYWGQGTLVTVSA
VL: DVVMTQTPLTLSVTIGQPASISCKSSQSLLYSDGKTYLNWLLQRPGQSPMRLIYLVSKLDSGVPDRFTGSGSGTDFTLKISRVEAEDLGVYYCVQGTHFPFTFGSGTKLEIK
notes: murine hybridoma precursor VH; murine heavy chain constant region; murine hybridoma precursor VL; murine light chain constant region, not described; Whole antibody; also called murine precursor antibody

Source: PMC7040040 (Scientific Reports, 2020)
